# In the supplement of paper PMC5998384:
# What was measured:
# HeLa Kyoto [1] = assay: solubility in G1/S (NP-40 vs SDS abundance) (log2 ratio); higher = more soluble; settings: cell cycle stage: G1/S
# HeLa Kyoto [2] = assay: melting temperature (median over replicates), in situ; higher = more thermally stable
# HeLa Kyoto [3] = assay: solubility change mitosis vs G1/S (difference of NP-40 vs SDS log2 ratios) (log2 ratio difference); higher = more soluble in mitosis
# HeLa Kyoto [4] = assay: thermal stability score vs G1/S (z-score of summed log2 fold changes over temperatures); higher = more thermally stable than in G1/S
# [5] = cell cycle stage: early G1 (4.5 h after nocodazole release)
# 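Wherever melting temperature (median over replicates), in situ is given: HeLa Kyoto cells synchronized by double thymidine or nocodazole block, proteins quantified by TMT10plex mass spectrometry, three independent biological replicates.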
# 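Wherever solubility change mitosis vs G1/S (difference of NP-40 vs SDS log2 ratios) is given: synchronized HeLa Kyoto cells (double thymidine block for G1/S, nocodazole release for mitosis), protein amounts in NP-40 versus SDS lysates quantified by mass spectrometry, three biological replicates.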
# 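Wherever solubility in G1/S (NP-40 vs SDS abundance) is given: HeLa Kyoto cells arrested at G1/S by double thymidine block, proteins quantified by TMT10plex mass spectrometry in mild NP-40 versus SDS extracts, three biological replicates.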
# 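Wherever thermal stability score vs G1/S (z-score of summed log2 fold changes over temperatures) is given: synchronized HeLa Kyoto cells, proteins quantified by TMT10plex mass spectrometry, three biological replicates, mitosis taken 0.5 h after nocodazole release, G1/S directly after double thymidine block.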
Sequence,solubility in G1/S (log2) (HeLa Kyoto [1]),melting temperature (HeLa Kyoto [2]; cell cycle stage: G1/S) [°C],melting temperature (HeLa Kyoto [2]; cell cycle stage: mitosis) [°C],solubility change mitosis (log2) (HeLa Kyoto [3]),thermal stability score (HeLa Kyoto [4]; [5]),thermal stability score (HeLa Kyoto [4]; cell cycle stage: mitosis)
MDADDSRAPKGSLRKFLEHLSGAGKAIGVLTSGGDAQGMNAAVRAVVRMGIYVGAKVYFIYEGYQGMVDGGSNIAEADWESVSSILQVGGTIIGSARCQAFRTREGRLKAACNLLQRGITNLCVIGGDGSLTGANLFRKEWSGLLEELARNGQIDKEAVQKYAYLNVVGMVGSIDNDFCGTDMTIGTDSALHRIIEVVDAIMTTAQSHQRTFVLEVMGRHCGYLALVSALACGADWVFLPESPPEEGWEEQMCVKLSENRARKKRLNIIIVAEGAIDTQNKPITSEKIKELVVTQLGYDTRVTILGHVQRGGTPSAFDRILASRMGVEAVIALLEATPDTPACVVSLNGNHAVRLPLMECVQMTQDVQKAMDERRFQDAVRLRGRSFAGNLNTYKRLAIKLPDDQIPKTNCNVAVINVGAPAAGMNAAVRSAVRVGIADGHRMLAIYDGFDGFAKGQIKEIGWTDVGGWTGQGGSILGTKRVLPGKYLEEIATQMRTHSINALLIIGGFEAYLGLLELSAAREKHEEFCVPMVMVPATVSNNVPGSDFSIGADTALNTITDTCDRIKQSASGTKRRVFIIETMGGYCGYLANMGGLAAGADAAYIFEEPFDIRDLQSNVEHLTEKMKTTIQRGLVLRNESCSENYTTDFIYQLYSEEGKGVFDCRKNVLGHMQQGGAPSPFDRNFGTKISARAMEWITAKLKEARGRGKKFTTDDSICVLGISKRNVIFQPVAELKKQTDFEHRIPKEQWWLKLRPLMKILAKYKASYDVSDSGQLEHVQPWSV [PFKP],-0.0125,57.4,58.3,-0.138,-0.744,-1.49
MDAGFFRGTSAEQDNRFSNKQKKLLKQLKFAECLEKKVDMSKVNLEVIKPWITKRVTEILGFEDDVVIEFIFNQLEVKNPDSKMMQINLTGFLNGKNAREFMGELWPLLLSAQENIAGIPSAFLELKKEEIKQRQIEQEKLASMKKQDEDKDKRDKEEKESSREKRERSRSPRRRKSRSPSPRRRSSPVRRERKRSHSRSPRHRTKSRSPSPAPEKKEKTPELPEPSVKVKEPSVQEATSTSDILKVPKPEPIPEPKEPSPEKNSKKEKEKEKTRPRSRSRSKSRSRTRSRSPSHTRPRRRHRSRSRSYSPRRRPSPRRRPSPRRRTPPRRMPPPPRHRRSRSPVRRRRRSSASLSGSSSSSSSSRSRSPPKKPPKRTSSPPRKTRRLSPSASPPRRRHRPSPPATPPPKTRHSPTPQQSNRTRKSRVSVSPGRTSGKVTKHKGTEKRESPSPAPKPRKVELSESEEDKGGKMAAADSVQQRRQYRRQNQQSSSDSGSSSSSEDERPKRSHVKNGEVGRRRRHSPSRSASPSPRKRQKETSPRGRRRRSPSPPPTRRRRSPSPAPPPRRRRTPTPPPRRRTPSPPPRRRSPSPRRYSPPIQRRYSPSPPPKRRTASPPPPPKRRASPSPPPKRRVSHSPPPKQRSSPVTKRRSPSLSSKHRKGSSPSRSTREARSPQPNKRHSPSPRPRAPQTSSSPPPVRRGASSSPQRRQSPSPSTRPIRRVSRTPEPKKIKKAASPSPQSVRRVSSSRSVSGSPEPAAKKPPAPPSPVQSQSPSTNWSPAVPVKKAKSPTPSPSPPRNSDQEGGGKKKKKKKDKKHKKDKKHKKHKKHKKEKAVAAAAAAAVTPAAIAAATTTLAQEEPVAAPEPKKETESEAEDNLDDLEKHLREKALRSMRKAQVSPQS [SRRM1],-1.06,51.3,50,1.02,-6.13,-6.36
MDAKARNCLLQHREALEKDIKTSYIMDHMISDGFLTISEEEKVRNEPTQQQRAAMLIKMILKKDNDSYVSFYNALLHEGYKDLAALLHDGIPVVSSSSGKDSVSGITSYVRTVLCEGGVPQRPVVFVTRKKLVNAIQQKLSKLKGEPGWVTIHGMAGCGKSVLAAEAVRDHSLLEGCFPGGVHWVSVGKQDKSGLLMKLQNLCTRLDQDESFSQRLPLNIEEAKDRLRILMLRKHPRSLLILDDVWDSWVLKAFDSQCQILLTTRDKSVTDSVMGPKYVVPVESSLGKEKGLEILSLFVNMKKADLPEQAHSIIKECKGSPLVVSLIGALLRDFPNRWEYYLKQLQNKQFKRIRKSSSYDYEALDEAMSISVEMLREDIKDYYTDLSILQKDVKVPTKVLCILWDMETEEVEDILQEFVNKSLLFCDRNGKSFRYYLHDLQVDFLTEKNCSQLQDLHKKIITQFQRYHQPHTLSPDQEDCMYWYNFLAYHMASAKMHKELCALMFSLDWIKAKTELVGPAHLIHEFVEYRHILDEKDCAVSENFQEFLSLNGHLLGRQPFPNIVQLGLCEPETSEVYQQAKLQAKQEVDNGMLYLEWINKKNITNLSRLVVRPHTDAVYHACFSEDGQRIASCGADKTLQVFKAETGEKLLEIKAHEDEVLCCAFSTDDRFIATCSVDKKVKIWNSMTGELVHTYDEHSEQVNCCHFTNSSHHLLLATGSSDCFLKLWDLNQKECRNTMFGHTNSVNHCRFSPDDKLLASCSADGTLKLWDATSANERKSINVKQFFLNLEDPQEDMEVIVKCCSWSADGARIMVAAKNKIFLFDIHTSGLLGEIHTGHHSTIQYCDFSPQNHLAVVALSQYCVELWNTDSRSKVADCRGHLSWVHGVMFSPDGSSFLTSSDDQTIRLWETKKVCKNSAVMLKQEVDVVFQENEVMVLAVDHIRRLQLINGRTGQIDYLTEAQVSCCCLSPHLQYIAFGDENGAIEILELVNNRIFQSRFQHKKTVWHIQFTADEKTLISSSDDAEIQVWNWQLDKCIFLRGHQETVKDFRLLKNSRLLSWSFDGTVKVWNIITGNKEKDFVCHQGTVLSCDISHDATKFSSTSADKTAKIWSFDLLLPLHELRGHNGCVRCSAFSVDSTLLATGDDNGEIRIWNVSNGELLHLCAPLSEEGAATHGGWVTDLCFSPDGKMLISAGGYIKWWNVVTGESSQTFYTNGTNLKKIHVSPDFKTYVTVDNLGILYILQTLE [APAF1],-0.414,51.2,49.7,-0.0529,-0.116,0.0498
MDAPRQVVNFGPGPAKLPHSVLLEIQKELLDYKGVGISVLEMSHRSSDFAKIINNTENLVRELLAVPDNYKVIFLQGGGCGQFSAVPLNLIGLKAGRCADYVVTGAWSAKAAEEAKKFGTINIVHPKLGSYTKIPDPSTWNLNPDASYVYYCANETVHGVEFDFIPDVKGAVLVCDMSSNFLSKPVDVSKFGVIFAGAQKNVGSAGVTVVIVRDDLLGFALRECPSVLEYKVQAGNSSLYNTPPCFSIYVMGLVLEWIKNNGGAAAMEKLSSIKSQTIYEIIDNSQGFYVCPVEPQNRSKMNIPFRIGNAKGDDALEKRFLDKALELNMLSLKGHRSVGGIRASLYNAVTIEDVQKLAAFMKKFLEMHQL [PSAT1],0.15,55.6,55.6,-0.136,-0.482,-0.769
MDASLEKIADPTLAEMGKNLKEAVKMLEDSQRRTEEENGKKLISGDIPGPLQGSGQDMVSILQLVQNLMHGDEDEEPQSPRIQNIGEQGHMALLGHSLGAYISTLDKEKLRKLTTRILSDTTLWLCRIFRYENGCAYFHEEEREGLAKICRLAIHSRYEDFVVDGFNVLYNKKPVIYLSAAARPGLGQYLCNQLGLPFPCLCRVPCNTVFGSQHQMDVAFLEKLIKDDIERGRLPLLLVANAGTAAVGHTDKIGRLKELCEQYGIWLHVEGVNLATLALGYVSSSVLAAAKCDSMTMTPGPWLGLPAVPAVTLYKHDDPALTLVAGLTSNKPTDKLRALPLWLSLQYLGLDGFVERIKHACQLSQRLQESLKKVNYIKILVEDELSSPVVVFRFFQELPGSDPVFKAVPVPNMTPSGVGRERHSCDALNRWLGEQLKQLVPASGLTVMDLEAEGTCLRFSPLMTAAVLGTRGEDVDQLVACIESKLPVLCCTLQLREEFKQEVEATAGLLYVDDPNWSGIGVVRYEHANDDKSSLKSDPEGENIHAGLLKKLNELESDLTFKIGPEYKSMKSCLYVGMASDNVDAAELVETIAATAREIEENSRLLENMTEVVRKGIQEAQVELQKASEERLLEEGVLRQIPVVGSVLNWFSPVQALQKGRTFNLTAGSLESTEPIYVYKAQGAGVTLPPTPSGSRTKQRLPGQKPFKRSLRGSDALSETSSVSHIEDLEKVERLSSGPEQITLEASSTEGHPGAPSPQHTDQTEAFQKGVPHPEDDHSQVEGPESLR [PDXDC1],0.342,47.8,48.8,-0.152,1.35,2.61
MDATALERDAVQFARLAVQRDHEGRYSEAVFYYKEAAQALIYAEMAGSSLENIQEKITEYLERVQALHSAVQSKSADPLKSKHQLDLERAHFLVTQAFDEDEKENVEDAIELYTEAVDLCLKTSYETADKVLQNKLKQLARQALDRAEALSEPLTKPVGKISSTSVKPKPPPVRAHFPLGANPFLERPQSFISPQSCDAQGQRYTAEEIEVLRTTSKINGIEYVPFMNVDLRERFAYPMPFCDRWGKLPLSPKQKTTFSKWVRPEDLTNNPTMIYTVSSFSIKQTIVSDCSFVASLAISAAYERRFNKKLITGIIYPQNKDGEPEYNPCGKYMVKLHLNGVPRKVIIDDQLPVDHKGELLCSYSNNKSELWVSLIEKAYMKVMGGYDFPGSNSNIDLHALTGWIPERIAMHSDSQTFSKDNSFRMLYQRFHKGDVLITASTGMMTEAEGEKWGLVPTHAYAVLDIREFKGLRFIQLKNPWSHLRWKGRYSENDVKNWTPELQKYLNFDPRTAQKIDNGIFWISWDDLCQYYDVIYLSWNPGLFKESTCIHSTWDAKQGPVKDAYSLANNPQYKLEVQCPQGGAAVWVLLSRHITDKDDFANNREFITMVVYKTDGKKVYYPADPPPYIDGIRINSPHYLTKIKLTTPGTHTFTLVVSQYEKQNTIHYTVRVYSACSFTFSKIPSPYTLSKRINGKWSGQSAGGCGNFQETHKNNPIYQFHIEKTGPLLIELRGPRQYSVGFEVVTVSTLGDPGPHGFLRKSSGDYRCGFCYLELENIPSGIFNIIPSTFLPKQEGPFFLDFNSIIPIKITQLQ [CAPN7],0.0756,50.4,49.7,-0.0174,-0.306,-0.374
MDAVNAFNQELFSLMDMKPPISRAKMILITKAAIKAIKLYKHVVQIVEKFIKKCKPEYKVPGLYVIDSIVRQSRHQFGTDKDVFGPRFSKNITATFQYLYLCPSEDKSKIVRVLNLWQKNGVFKIEIIQPLLDMAAGTSNAAPVAENVTNNEGSPPPPVKVSSEPPTQATPNSVPAVPQLPSSDAFAAVAQLFQTTQGQQLQQILQTFQQPPKPQSPALDNAVMAQVQAITAQLKTTPTQPSEQKAAFPPPEQKTAFDKKLLDRFDYDDEPEAVEESKKEDTTAVTTTAPAAAVPPAPTATVPAAAAPAAASPPPPQAPFGFPGDGMQQPAYTQHQNMDQFQPRMMGIQQDPMHHQVPLPPNGQMPGFGLLPTPPFPPMAQPVIPPTPPVQQPFQASFQAQNEPLTQKPHQQEMEVEQPCIQEVKRHMSDNRKSRSRSASRSPKRRRSRSGSRSRRSRHRRSRSRSRDRRRHSPRSRSQERRDREKERERRQKGLPQVKPETASVCSTTLWVGQLDKRTTQQDVASLLEEFGPIESINMIPPRGCAYIVMVHRQDAYRALQKLSRGNYKVNQKSIKIAWALNKGIKADYKQYWDVELGVTYIPWDKVKPEELESFCEGGMLDSDTLNPDWKGIPKKPENEVAQNGGAETSHTEPVSPIPKPLPVPVPPIPVPAPITVPPPQVPPHQPGPPVVGALQPPAFTPPLGIPPPGFGPGVPPPPPPPPFLRPGFNPMHLPPGFLPPGPPPPITPPVSIPPPHTPPISIPNSTIAGINEDTTKDLSIGNPIPTVVSGARGNAESGDSVKMYGSAVPPAAPTNLPTPPVTQPVSLLGTQGVAPGPVIGLQAPSTGLLGARPGLIPLQRPPGMPPPHLQRFPLMPPRPMPPHMMHRGPPPGPGGFAMPPPHGMKGPFPPHGPFVRPGGMPGLGGPGPGPGGPEDRDGRQQPPQQPQQQPQPQAPQQPQQQQQQQPPPSQQPPPTQQQPQQFRNDNRQQFNSGRDQERFGRRSFGNRVENDRERYGNRNDDRDNSNRDRREWGRRSPDRDRHRDLEERNRRSSGHRDRERDSRDRESRREKEEARGKEKPEVTDRAGGNKTVEPPISQVGNVDTASELEKGVSEAAVLKPSEELPAEATSSVEPEKDSGSAAEAPR [SCAF4],-0.347,48.5,51.4,0.211,0.0642,-0.063
